Where a chain is given by its changes, count along the chain named. Names may count otherwise. “Also recorded” adds a separate entry of the source.

Data set [1] has as its system SPbeta AimR operator. Particulars: pH 7.5. The method, then:
AimR binding to its operator and the inhibition induced by the arbitrium peptides were analyzed by native polyacrylamide and agarose gel electrophoresis. […] Double strand DNA primer probes were purchased from Macrogen (Table S1 and Figure 3A). Purified PCR product or purchased probes (0.4μM) and AimR (4μM) protein were mixed in EMSA buffer (50 mM HEPES pH 7.5, 5 mM MgCl2, 75 mM NaCl and 0.5 mM EDTA). The samples were incubated for 10 min at room temperature. 8% polyacrylamide gels were electrophoresed in Tris-Borate-EDTA (TBE) buffer at 100V for one hour, followed by loading of the samples. Electrophoresis was then performed in TBE buffer at 4°C for about 150 min at 100V. Agarose gels (0.8%–1.2%) were run in TAE buffer at room temperature for about 100 min at 80V. Gels were stained with RedSafe (Intron Biotechnology).

Data set [2] deals with spacer-length-variant operators. Put plainly: EMSA and titration, AimR binding to spacer-length-variant operators. On the set-up: species or system Bacillus subtilis SPbeta phage. Conditions: apo AimR; spacers 12 to 35 bp; titration with 0.125 to 1 μg AimR. From the text: (§1) Gels were stained with RedSafe (Intron Biotechnology).
Data set [3] deals with intergenic region between yopL and yopM. The data set is described as follows: Nuclease protection assay (footprinting). The data set is classed as binding, Bacillus subtilis SPbeta phage. Conditions: 0.3 μM AimR SPbeta, 10 min room temperature; DNase I 10^−4 mg/mL, 1 min at 37°C; capillary electrophoresis.
Data set [4] is described as follows: SEC-MALS, oligomeric state of AimR proteins. The data set is classed as physicochemical. Particulars: 5 mg/mL, Superdex 200 HR 10/300, 25 mM Tris pH 8, 250 mM NaCl. The method, then: SEC-MALS experiments were performed using an AKTA pure system (GE Heralthcare) coupled to a Wyatt DAWN HELEOS-II MALS instrument and a Wyatt Optilab rEX differential refractometer (Wyatt). 50 μL of the protein samples were injected at a concentration of 5 mg/mL on a Superdex 200 HR 10/300 (GE Heralthcare) column equilibrated in 25 mM Tris pH 8, 250 mM NaCl. When the effect of the peptide in the oligomeric state was tested, 1 mM peptide was added to the injected sample and the running buffer was supplemented with peptide at a final concentration of 1 μM. The Astra 7.1.2 software from the manufacturer was used for acquisition and analysis of the data.

Data set [5] relates to putative AimR operators found in SPbeta genome. The data set is described as follows: EMSA, AimR binding to other SPbeta operators with longer spacers. On the set-up: species or system Bacillus subtilis SPbeta phage. Conditions: spacers of 27 and 28 bp.
Source text: as §1
A general note: Mobility shift assays separate free from complexed probe on a gel.

The test system of data set [6] is SPbeta AimR D360A. The data set is described as follows: Thermal shift assay, mutant AimR D360A. The format is binding, Bacillus subtilis SPbeta phage. Conditions: AimR^D360A versus WT AimR. The method, then: The thermal shift assay was conducted in a 7500 Fast Real time PCR System (Applied Biosystems). Samples of 20 μL containing 5 × Sypro Orange (Sigma-Aldrich) and 20 μM of protein in a 20 mM Tris pH 8 and 250 mM NaCl buffer were loaded in 96-well PCR plates. To calculate the apparent Kd peptide concentrations from 0 to 2 μM were added to the mixture. Samples were heated from 20 to 85°C in steps of one degree. Fluorescent intensity was plotted versus temperature and integrated with GraphPad Prism software using a Boltzmann model to calculate melting temperatures.

Data set [7] is described as follows: Size-exclusion chromatography of AimR^ΔC-ter. The format is physicochemical. Conditions: stop codon at position 294. Background: Size exclusion chromatography separates by hydrodynamic size, large species first.

B1: SPbeta AimR: full-length AimR (residues 1-386) from the SPbeta phage, transcription factor and arbitrium receptor (protein)
chain: MELIRIAMKKDLENDNSLMNKWATVAGLKNPNPLYDFLNHDGKTFNEFSSIVNIVKSQYPDREYELMKDYCLNLDVKTKAARSALEYADANMFFEIEDVLIDSMISCSNMKSKEYGKVYKIHRELSNSVITEFEAVKRLGKLNIKTPEMNSFSRLLLLYHYLSTGNFSPMAQLIKQIDLSEISENMYIRNTYQTRVHVLMSNIKLNENSLEECREYSKKALESTNILRFQVFSYLTIGNSLLFSNYELAQENFLKGLSISVQNENYNMIFQQALCFLNNVWRKENKWINFESDSIMDLQEQAHCFINFNENSKAKEVLDKLDLLVHNDNELAMHYYLKGRLEQNKACFYSSIEYFKKSNDKFLIRLPLLELQKMGENQKLLELLLL
modifications: left off: His6, N-terminal, cleaved
notes: full-length AimR (residues 1-386) from the SPbeta phage, transcription factor and arbitrium receptor
On to B1, for which the “binding to SPbeta operator or 359 bp fragment” value in data set [1] is given as “binds to a 359 bp fragment”. Also, the “affinity / capacity to bind spacer-length-variant operators” value in data set [2] is reported as “after eliminating 2 bp AimR dramatically loses its capacity to bind the operator; also recorded: can recognize operators in which the spacer has been increased even more than 6 bp”. In addition, the “length of sequence protected from DNase I degradation” value in data set [3] is reported as 37 nt. Also, the “oligomeric state in solution” value in data set [4] is listed as “dimeric organization”. Besides, the “binding to other SPbeta operators” value in data set [5] is on record as “AimR binding to other SPbeta operators with longer spacers”.

B2: AimR^D360A: SPbeta AimR residue D360 mutated to Ala (protein)
chain: B1 chain with D360A
With B2, the “decrease in the melting temperature with respect to the WT AimR” value in data set [6] is 5.3 °C. Moreover, the “oligomeric state in solution” value in data set [4] is reported as “dimeric in solution”.

B3: AimR^N202A: SPbeta AimR residue N202 mutated to Ala (protein)
chain: B1 chain with N202A
On to B3, for which the “binding to SPbeta operator or 359 bp fragment” value in data set [1] was “able to bind DNA”. Moreover, the “oligomeric state in solution” value in data set [4] is given as “dimeric in solution”.

B4: AimR^ΔC-ter: AimR mutant lacking the TPR^C-ter subdomain, stop codon at position 294 (protein)
chain: MELIRIAMKKDLENDNSLMNKWATVAGLKNPNPLYDFLNHDGKTFNEFSSIVNIVKSQYPDREYELMKDYCLNLDVKTKAARSALEYADANMFFEIEDVLIDSMISCSNMKSKEYGKVYKIHRELSNSVITEFEAVKRLGKLNIKTPEMNSFSRLLLLYHYLSTGNFSPMAQLIKQIDLSEISENMYIRNTYQTRVHVLMSNIKLNENSLEECREYSKKALESTNILRFQVFSYLTIGNSLLFSNYELAQENFLKGLSISVQNENYNMIFQQALCFLNNVWRKENKWINFESD
With B4, in data set [7], the “oligomeric state in solution (size-exclusion chromatography)” value is reported as “monomeric in solution”.
